4 molecules from PMC9664404, “DNA-mediated proteolysis by neutrophil elastase enhances binding activities of the HMGB1 protein” (The Journal of Biological Chemistry, 2022) can be followed below.

The target in data set [1] is T1, HMGB1 full-length (disulfide form) (UniProt P09429 1-215). Kind of data set: fluorescence anisotropy; 200 mM NaCl; value only in figure; affinity lower than Δ39; 10 mM potassium phosphate pH 7.4, 200 mM NaCl (32G) or 150 mM NaCl (J1), 4 nM FAM-DNA, 25 °C. To be noted: protein: recombinant; label: 5'-FAM; G-quadruplex. A general note: Polarisation of emitted light reports the rotation of a fluorescent probe.

In data set [2] the target is HMGB1 Δ44 (disulfide form) (UniProt P09429 1-171, del172-215). Put plainly: fluorescence anisotropy; 200 mM NaCl; value only in figure; as strong as Δ39; 10 mM potassium phosphate pH 7.4, 200 mM NaCl (32G) or 150 mM NaCl (J1), 4 nM FAM-DNA, 25 °C. The note with it: protein: recombinant; label: 5'-FAM; G-quadruplex.
Data set [3] addresses HMGB1 Δ40 (disulfide form) (UniProt P09429 1-175, del176-215). Described as above. To be noted: protein: recombinant; label: 5'-FAM; G-quadruplex.
Data set [4] addresses T2, HMGB1 Δ39 (disulfide form) (UniProt P09429 1-176, del177-215). Kind of data set: fluorescence anisotropy; 200 mM NaCl; value only in figure; affinity higher than full-length; 10 mM potassium phosphate pH 7.4, 200 mM NaCl (32G) or 150 mM NaCl (J1), 4 nM FAM-DNA, 25 °C. The note with it: protein: recombinant; label: 5'-FAM; G-quadruplex.
In the next data set the target is T3, TLR4•MD-2 complex (UniProt O00206 24-631; Q9Y6Y9 19-160).
T3 construct: toll-like receptor 4 (TLR4) of the bought TLR4•MD-2 complex; MD-2 of the bought TLR4•MD-2 complex; also called toll-like receptor 4 • MD-2 complex; source: bought: R&D Systems (catalog no. 3146-TM-050), lyophilized
T3 sequence (O00206 24-631, chain 1 of 2): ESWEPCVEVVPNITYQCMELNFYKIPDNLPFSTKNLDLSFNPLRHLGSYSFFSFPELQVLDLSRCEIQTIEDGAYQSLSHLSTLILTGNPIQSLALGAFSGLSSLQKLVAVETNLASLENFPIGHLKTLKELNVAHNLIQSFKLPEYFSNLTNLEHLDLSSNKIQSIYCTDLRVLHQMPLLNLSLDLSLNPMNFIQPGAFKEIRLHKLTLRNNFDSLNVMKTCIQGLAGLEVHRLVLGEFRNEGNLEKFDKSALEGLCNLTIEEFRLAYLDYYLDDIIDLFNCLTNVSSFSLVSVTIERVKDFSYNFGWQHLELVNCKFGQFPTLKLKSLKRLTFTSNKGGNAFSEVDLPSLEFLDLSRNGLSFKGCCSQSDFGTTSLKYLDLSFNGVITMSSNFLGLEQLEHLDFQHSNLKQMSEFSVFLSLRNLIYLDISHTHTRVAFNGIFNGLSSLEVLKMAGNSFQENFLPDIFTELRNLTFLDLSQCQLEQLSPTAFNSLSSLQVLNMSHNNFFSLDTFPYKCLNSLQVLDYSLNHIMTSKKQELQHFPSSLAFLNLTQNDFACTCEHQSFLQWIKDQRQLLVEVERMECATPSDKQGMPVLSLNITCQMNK
T3 sequence (Q9Y6Y9 19-160, chain 2 of 2): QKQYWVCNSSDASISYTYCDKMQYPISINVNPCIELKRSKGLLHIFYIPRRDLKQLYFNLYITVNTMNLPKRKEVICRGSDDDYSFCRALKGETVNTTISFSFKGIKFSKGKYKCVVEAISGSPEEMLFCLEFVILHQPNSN
Put plainly: SPR; TLR4•MD-2 complex immobilised on a CM5 chip by amine coupling (1200 RU); HMGB1 proteins injected at 30 μl/min, 25 °C; 10 mM Hepes (pH 7.4), 150 mM NaCl, 3 mM EDTA, 0.005% v/v Tween-20; 1:1 binding model; Biacore T-100; three independent experiments. The note with it: both partners purified. (In general: In SPR one partner is held on a chip, and binding of the other changes the refractive index at the surface.)

Data set [5] concerns the target T1, HMGB1 full-length (disulfide form). Kind of data set: fluorescence anisotropy; 150 mM NaCl; value only in figure; affinity lower than Δ39; 10 mM potassium phosphate pH 7.4, 200 mM NaCl (32G) or 150 mM NaCl (J1), 4 nM FAM-DNA, 25 °C. To be noted: protein: recombinant; label: 5'-FAM on J1A; four-way junction of 4 x 16-mer strands.
The target of data set [6] is T2, HMGB1 Δ39 (disulfide form). Kind of data set: fluorescence anisotropy; 150 mM NaCl; value only in figure; affinity higher than full-length; 10 mM potassium phosphate pH 7.4, 200 mM NaCl (32G) or 150 mM NaCl (J1), 4 nM FAM-DNA, 25 °C. The note with it: protein: recombinant; label: 5'-FAM on J1A; four-way junction of 4 x 16-mer strands.

For AGGGCGGTGTGGGAAGAGGGAAGAGGGGGAGG (structured_DNA) [FAM-32G G-quadruplex], the binding result in data set [1], in data set [2], in data set [3] and in data set [4] was “binds” each time.

B1: Δ39 variant of disulfide HMGB1 (lacks the C-terminal 39 residues) (domain or fragment, UniProt P09429 1-176, looked up)
chain: MGKGDPKKPRGKMSSYAFFVQTCREEHKKKHPDASVNFSEFSKKCSERWKTMSAKEKGKFEDMAKADKARYEREMKTYIPPKGETKKKFKDPNAPKRPPSAFFLFCSEYRPKIKGEHPGLSIGDVAKKLGEMWNNTAADDKQPYEKKAAKLKEKYEKDIAAYRAKGKPDAAKKGVV
modifications: disulfide bond between Cys23 and Cys45
notes: HMGB1 of GenBank CAG33144.1 with a stop codon at K177; lacks residues 177-215, ends at V176; also called Δ39 product; source: E. coli BL21(DE3), purified (SP-FF cation exchange, Resource S cation exchange, Sephacryl S-100 HR SEC)
What is called Kd is the constant that tells how readily two partners part at equilibrium. A lower Kd goes with higher affinity. Regarding B1, the Kd in the data set with TLR4•MD-2 complex was 25 nM.

B2: full-length (FL) disulfide HMGB1 protein (high-mobility-group-box-1, oxidized) (natural protein, UniProt P09429 1-215, looked up)
chain: MGKGDPKKPRGKMSSYAFFVQTCREEHKKKHPDASVNFSEFSKKCSERWKTMSAKEKGKFEDMAKADKARYEREMKTYIPPKGETKKKFKDPNAPKRPPSAFFLFCSEYRPKIKGEHPGLSIGDVAKKLGEMWNNTAADDKQPYEKKAAKLKEKYEKDIAAYRAKGKPDAAKKGVVKAEKSKKKKEEEEDEEDEEDEEEEEDEEDEDEEEDDDDE
modifications: disulfide bond between Cys23 and Cys45
notes: 215 residues (D/E repeats are residues 186-215); also called FL HMGB1; intact disulfide HMGB1; source: E. coli BL21(DE3), purified (SP-FF cation exchange, Resource-Q anion exchange, Sephacryl S-100 HR SEC)
On to B2, for which the dissociation constant (Kd) with TLR4•MD-2 complex turned out to be 367 nM.

B3: Holliday junction J1 (J1A/J1B/J1C/J1D) (structured_DNA)
DNA 1: CGCAATCCTGAGCACG
DNA 2: CGTGCTCACCGAATGC
DNA 3: GCATTCGGACTATGGC
DNA 4: GCCATAGTGGATTGCG
With B3, the binding result in data set [5] and in data set [6] was “binds” in each case.
